Laboratory results taken from IntAct's records for PubMed 16511560.

B1: Protein Mdm4 (Homo sapiens), O15151 (parent)
chain: MTSFSTSAQCSTSDSACRISPGQINQVRPKLPLLKILHAAGAQGEMFTVKEVMHYLGQYIMVKQLYDQQEQHMVYCGGDLLGELLGRQSFSVKDPSPLYDMLRKNLVTLATATTDAAQTLALAQDHSMDIPSQDQLKQSAEESSTSRKRTTEDDIPTLPTSEHKCIHSREDEDLIENLAQDETSRLDLGFEEWDVAGLPWWFLGNLRSNYTPRSNGSTDLQTNQDVGTAIVSDTTDDLWFLNESVSEQLGVGIKVEAADTEQTSEEVGKVSDKKVIEVGKNDDLEDSKSLSDDTDVEVTSEDEWQCTECKKFNSPSKRYCFRCWALRKDWYSDCSKLTHSLSTSDITAIPEKENEGNDVPDCRRTISAPVVRPKDAYIKKENSKLFDPCNSVEFLDLAHSSESQETISSMGEQLDNLSEQRTDTENMEDCQNLLKPCSLCEKRPRDGNIIHGRTGHLVTCFHCARRLKKAGASCPICKKEIQLVIKVFIA

Variants of: B1
Settings: with ima4_human KPNA3, O00505
Sequence of ima4_human KPNA3, O00505 (O00505 whole entry): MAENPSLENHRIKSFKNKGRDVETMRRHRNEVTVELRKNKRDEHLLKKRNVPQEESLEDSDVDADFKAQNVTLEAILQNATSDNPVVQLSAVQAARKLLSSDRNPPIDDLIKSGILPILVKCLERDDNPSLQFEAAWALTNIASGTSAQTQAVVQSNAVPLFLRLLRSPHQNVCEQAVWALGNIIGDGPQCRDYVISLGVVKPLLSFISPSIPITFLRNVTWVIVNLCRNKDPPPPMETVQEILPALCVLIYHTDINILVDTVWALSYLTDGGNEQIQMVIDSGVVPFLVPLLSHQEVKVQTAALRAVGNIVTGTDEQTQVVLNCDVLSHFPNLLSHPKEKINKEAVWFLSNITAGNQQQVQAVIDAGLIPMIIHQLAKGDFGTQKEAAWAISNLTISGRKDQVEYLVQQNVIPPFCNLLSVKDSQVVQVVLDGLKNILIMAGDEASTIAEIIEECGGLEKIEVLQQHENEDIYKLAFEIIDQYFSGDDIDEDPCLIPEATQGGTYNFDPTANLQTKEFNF

| Variant | effect of a mutation on the interaction |
| --- | --- |
| MTSFSTSAQCSTSDSACRISPGQINQVRPKLPLLKILHAAGAQGEMFTVKEVMHYLGQYIMVKQLYDQQEQHMVYCGGDLLGELLGRQSFSVKDPSPLYDMLRKNLVTLATATTDAAQTLALAQDHSMDIPSQDQLKQSAEESSTSRKRTTEDDIPTLPTSEHKCIHSREDEDLIENLAQDETSRLDLGFEEWDVAGLPWWFLGNLRSNYTPRSNGSTDLQTNQDVGTAIVSDTTDDLWFLNESVSEQLGVGIKVEAADTEQTSEEVGKVSDKKVIEVGKNDDLEDSKSLSDDTDVEVTSEDEWQCTECKKFNSPSKRYCFRCWALRKDWYSDCSKLTHSLSTSDITAIPEKENEGNDVPDCRRTISAPVVRPKDAYIKKENSKLFDPCNSVEFLDLAHSSESQETISSMGEQLDNLSEQRTDTENMEDCQNLLKPCSLCEKRPRDGNIIHGRTGHLVTCFHCARRLEKAGASCPICKKEIQLVIKVFIA [K468E] | disrupting interaction |
